Data as given in IntAct's records for PubMed 26859459.

B1: Mitogen-activated protein kinase kinase kinase 21 (Homo sapiens), Q5TCX8 (parent)
chain: MALRGAAGATDTPVSSAGGAPGGSASSSSTSSGGSASAGAGLWAALYDYEARGEDELSLRRGQLVEVLSQDAAVSGDEGWWAGQVQRRLGIFPANYVAPCRPAASPAPPPSRPSSPVHVAFERLELKELIGAGGFGQVYRATWQGQEVAVKAARQDPEQDAAAAAESVRREARLFAMLRHPNIIELRGVCLQQPHLCLVLEFARGGALNRALAAANAAPDPRAPGPRRARRIPPHVLVNWAVQIARGMLYLHEEAFVPILHRDLKSSNILLLEKIEHDDICNKTLKITDFGLAREWHRTTKMSTAGTYAWMAPEVIKSSLFSKGSDIWSYGVLLWELLTGEVPYRGIDGLAVAYGVAVNKLTLPIPSTCPEPFAKLMKECWQQDPHIRPSFALILEQLTAIEGAVMTEMPQESFHSMQDDWKLEIQQMFDELRTKEKELRSREEELTRAALQQKSQEELLKRREQQLAEREIDVLERELNILIFQLNQEKPKVKKRKGKFKRSRLKLKDGHRISLPSDFQHKITVQASPNLDKRRSLNSSSSSPPSSPTMMPRLRAIQLTSDESNKTWGRNTVFRQEEFEDVKRNFKKKGCTWGPNSIQMKDRTDCKERIRPLSDGNSPWSTILIKNQKTMPLASLFVDQPGSCEEPKLSPDGLEHRKPKQIKLPSQAYIDLPLGKDAQRENPAEAESWEEAASANAATVSIEMTPTNSLSRSPQRKKTESALYGCTVLLASVALGLDLRELHKAQAAEEPLPKEEKKKREGIFQRASKSRRSASPPTSLPSTCGEASSPPSLPLSSALGILSTPSFSTKCLLQMDSEDPLVDSAPVTCDSEMLTPDFCPTAPGSGREPALMPRLDTDCSVSRNLPSSFLQQTCGNVPYCASSKHRPSHHRRTMSDGNPTPTGATIISATGASALPLCPSPAPHSHLPREVSPKKHSTVHIVPQRRPASLRSRSDLPQAYPQTAVSQLAQTACVVGRPGPHPTQFLAAKERTKSHVPSLLDADVEGQSRDYTVPLCRMRSKTSRPSIYELEKEFLS
partner: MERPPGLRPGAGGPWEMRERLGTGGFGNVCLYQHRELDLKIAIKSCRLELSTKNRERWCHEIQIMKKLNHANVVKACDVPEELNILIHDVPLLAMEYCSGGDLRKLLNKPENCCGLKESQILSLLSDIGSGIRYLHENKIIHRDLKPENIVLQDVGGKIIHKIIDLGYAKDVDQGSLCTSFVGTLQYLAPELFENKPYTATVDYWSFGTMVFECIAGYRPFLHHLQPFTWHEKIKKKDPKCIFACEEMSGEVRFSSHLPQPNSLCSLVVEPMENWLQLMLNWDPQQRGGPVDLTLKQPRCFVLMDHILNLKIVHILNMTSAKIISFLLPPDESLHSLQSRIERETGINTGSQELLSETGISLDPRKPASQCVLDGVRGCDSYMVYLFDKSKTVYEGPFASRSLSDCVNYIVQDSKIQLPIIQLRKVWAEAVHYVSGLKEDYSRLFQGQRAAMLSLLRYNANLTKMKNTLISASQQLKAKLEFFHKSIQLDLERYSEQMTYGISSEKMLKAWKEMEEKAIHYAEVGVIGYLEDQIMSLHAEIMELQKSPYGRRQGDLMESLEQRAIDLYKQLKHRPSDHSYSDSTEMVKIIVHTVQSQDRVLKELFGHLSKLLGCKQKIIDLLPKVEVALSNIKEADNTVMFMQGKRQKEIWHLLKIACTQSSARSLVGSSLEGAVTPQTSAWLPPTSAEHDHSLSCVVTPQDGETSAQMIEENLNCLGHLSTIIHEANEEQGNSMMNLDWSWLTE

Variants of: B1
Details: with ikka_human CHUK

Variant | effect of a mutation on the interaction
K151A | decreasing interaction strength
